Assay results taken from patent publication US7485460B2, “Enhanced growth of adult stem cells with Dkk-1” (Tulane University Health Sciences Center, priority 2003, dated 2009).

Legend:
MSCs (RS cells) = assay: Binding of biotinylated Dkk-1 peptides to MSCs (streptavidin-biotin fluorescence microscopy); parameters: species or system human; details: for fluorescence of MSCs labeled with peptide: FIGS. 30A-30G correspond to peptides A-G; for binding to early progenitor cells (RS cells): biotin-labeled peptide, streptavidin Alexafluor 594
From the text: FIG. 30, comprising FIGS. 30A-30H, is an image of a set of photomicrographs depicting solid phase binding assays to MSCs using biotinylated peptides. The labeled peptides in FIGS. 30A-30G correspond to peptides A-G in FIG. 29. FIG. 30H is a control.
The peptides were then labeled with biotin for use with a commercially available streptavidin-biotin detection system. The streptavidin was linked to a fluorescent tag (Alexafluor 594, Molecular Probes, Eugene, Oreg.) so as to be easily detected by fluorescence microscopy. MSCs were incubated with one of the peptides and the streptavidin-biotin detection system as indicated by the manufacturer's instructions. Then the MSCs were observed under a fluorescence microscope. All of these methods are well-known in the art and are easily found throughout the literature.

beta-catenin [1] = assay: Cellular distribution of beta-catenin in hMSCs by immunostaining; format: cell-based, human; details: stationary phase hMSCs, 0.1 micrograms per milliliter
Description: hMSCs in tissue culture dishes were fixed with 4% (v/v) Paraformaldehyde (USB Corporation, Cleveland, Ohio) for 10 minutes at 4° C. and washed with PBS (Fisher Lifesciences, Pittsburgh, Pa.). Sections (30 millimeter×60 millimeter) of the dishes containing the adherent cells were excised using a hot scalpel under constant hydration with PBS. The samples were blocked in PBS containing 0.4% (v/v) Triton X-100 (Sigma Aldrich, St. Louis, Mo.) and 5% (v/v) goat serum (Sigma Aldrich). Anti-beta-catenin (described above) was added in a 1:400 dilution to the slides in block solution. An appropriate concentration of mouse IgG1 (Cymbus Biotechnology Chandlers Ford, Hants, UK) was used as an isotype control. The samples were incubated for 16 hours at 4° C. followed by washing in PBS. The samples were then incubated for 1 hour in a 1:800 dilution of Alexa-Fluor 594-congugated secondary antibody (Molecular Probes, Eugene, Oreg.). Isotype controls were acquired from Chemicon and Becton Dickinson Slides were washed and mounted with medium containing DAPI (Vector Laboratories Incorporated; Burlingame, Calif.). Immunofluorescence microscopy and digital imaging was carried out using an upright fluorescent microscope (Eclipse 800, Nikon, Japan). […]

beta-catenin [2] = assay: beta-catenin levels in hMSCs by western blotting; format: cell-based, human; details: stationary phase hMSCs, 0.1 micrograms per milliliter
Description: For immunoblotting, filters were blocked in PBS containing 0.1% (v/v) Tween 20 (Sigma, St. Louis, Mo.) for 1 hour. For detection of beta-catenin, blots were probed with an anti-beta-catenin monoclonal antibody at a dilution of 1 to 1000 (clone 5H10 Chemicon International; Temecula, Calif.) followed by an anti-mouse peroxidase-conjugated rabbit serum (Sigma Aldrich, St. Louis, Mo.). For detection of Dkk-1, blots were probed in 1 microgram per milliliter of anti Dkk-1 polyclonal antibody (see below) followed by an anti-rabbit peroxidase-conjugated monoclonal antibody (clone RG 96, Sigma Aldrich, St. Louis, Mo.). Positive bands were detected by chemiluminescence in accordance with a previously described procedure (Spees et al. Cell Stress Chaperones, 7:97-106 (2002)).
In further experiments, the effect of recombinant Dkk-1 on beta-catenin levels in hMSCs were investigated.

hMSCs [3] = assay: Colony-forming potential of hMSCs with recombinant Dkk-1 (crystal violet); format: cell-based, human
Description: MSCs were plated at about 0.6 cells per cm^2 and incubated in complete medium for 17 days. For direct visualization of colonies, a 5% (w/v) solution of crystal violet in methanol (Sigma Aldrich, St. Louis, Mo.) was added to tissue culture dishes previously washed twice with PBS. After 20 minutes, the plates were washed with distilled water and air-dried. Stained colonies with diameters 2 millimeters or greater were counted.
To test the effect of recombinant Dkk-1 on the colony-forming potential of hMSCs, 100 hMSCs were plated onto a 176 cm2 tissue culture dish and allowed to form colonies in the absence or presence of Dkk-1 in medium supplemented with 10% (v/v) fetal calf serum instead of the optimal concentration of 20%.

hMSCs [4] = assay: Effect of recombinant Dkk-1 on hMSC proliferation (fluorescence assay for nucleic acids); format: cell-based, human
Description: For assay of proliferation, cells were also quantified by fluorescent labeling of nucleic acids (CyQuant dye; Molecular Probes Incorporated; Eugene, Oreg.). hMSCs were plated at 100 cells per cm^2 into 10 cm^2 wells and allowed to grow for 4 days. The cells were washed with PBS and medium was added containing the appropriate concentration of Dkk-1 and FCS. The cells were recovered by trypsinization as described above. Fluorescence analysis was carried out using a microplate fluorescence reader (FLx800; Bio-Tek Instruments Incorporated; Winooski, Vt.) set to 480 nanometers excitation and 520 nanometers emission.
To test the hypothesis that Dkk-1 increased proliferation of hMSCs, its effects on rate of growth were assayed. The hMSCs were plated at a density of 100 cells per cm^2 in 6 well plates (10 per cm^2 per well). After 4 days, when the cells were in early log phase of growth, the conditioned medium was removed and replaced with fresh medium containing either vehicle, 0.1 micrograms per milliliter Dkk-1 or 0.01 micrograms per milliliter Dkk-1.

[5] = 100 hMSCs per 176 cm2 dish, 10% FCS, 2.5 weeks

Row | Molecule | fluorescence of MSCs labeled with peptide (MSCs (RS cells)) | binding to early progenitor cells (RS cells) (MSCs (RS cells)) | cellular distribution of beta-catenin (beta-catenin [1]) | beta-catenin levels (beta-catenin [2]) | colony size and number at high concentration (hMSCs [3]; 0.5 micrograms per milliliter) | colony number (hMSCs [3]; [5]) | colony size (hMSCs [3]; [5]) | duration of effect on proliferation (hMSCs [4]; 0.1 micrograms per milliliter) | rate of proliferation at high concentration (hMSCs [4]; 0.5 micrograms per milliliter) | effect on proliferation as cells approached stationary phase (hMSCs [4]; cells approaching stationary phase of growth) | effect on lag phase and proliferation (hMSCs [4]; early log phase hMSCs, fresh medium with 0.1 or 0.01 micrograms per milliliter Dkk-1) | duration of significant effect on proliferation (hMSCs [4]; tenfold less Dkk-1 (0.01 micrograms per milliliter))
1 | LSSKMYHTKGQEGSVCLRSS (Peptide synthesized from Dkk-1 LRP-6 binding domain) [Peptide B] | highly fluorescent | tightly bound |  |  |  |  |  |  |  |  |  | 
2 | sTKHRRKGSHGLEIFQRCYs (STKHRRKGSHGLEIFQRCYS; Peptide synthesized from Dkk-1 LRP-6 binding domain) [Peptide E] | highly fluorescent | tightly bound |  |  |  |  |  |  |  |  |  | 
3 | recombinant Dkk-1: Histidine-tagged recombinant human Dkk-1 expressed in E. coli, refolded from inclusion bodies; inhibitor of Wnt signaling (protein) TLNSVLNSNAIKNLPPPLGGAAGHPGSAVSAAPGILYPGGNKYQTIDNYQPYPCAEDEECGTDEYCASPTRGGDAGVQICLACRKRRKRCMRHAMCCPGNYCKNGICVSSDQNHFRGEIEETITESFGNDHSTLDGYSRRTTLSSKMYHTKGQEGSVCLRSSDCASGLCCARHFWSKICKPVLKEGQVCTKHRRKGSHGLEIFQRCYCGEGLSCRIQKDHHQASNSSRLHTCQRH |  |  | clearance of the cytoplasmic pool of beta-catenin | reduced the levels of beta-catenin | reduced both the colony size and number | no significant effect | increased colony size | 30 h | failed to increase the rate of proliferation | no significant effect | reduced the lag phase and initially increased proliferation | about 15 hours
